Data taken from patent US20070141052A1.

Experiments:
[1] = molecular target: biotin-labeled soluble FcRn; test: ELISA: biotinylated soluble FcRn on NeutrAvidin plate, IgG supernatant at neutral pH, anti-human Fab-HRP detection; conditions: scale: % of wild type
[2] = molecular target: biotin-labeled soluble FcRn; test: ELISA: biotinylated soluble FcRn on NeutrAvidin plate, IgG supernatant at pH 6.0, anti-human Fab-HRP detection; conditions: scale: % of wild type
[3] = molecular target: soluble human FcγRIII (human) (UniProt P08637); test: antigen-capture ELISA: IgG captured on PSA-coated plate, biotinylated soluble human FcγR, NeutrAvidin-AP; background-subtracted, normalized to parent
Chain of UniProt P08637 (P08637 17-208): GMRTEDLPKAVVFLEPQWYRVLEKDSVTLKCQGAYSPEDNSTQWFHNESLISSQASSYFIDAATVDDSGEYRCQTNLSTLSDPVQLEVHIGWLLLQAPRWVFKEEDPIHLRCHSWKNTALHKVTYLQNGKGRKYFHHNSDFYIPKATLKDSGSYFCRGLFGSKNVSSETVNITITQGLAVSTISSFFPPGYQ

[4] = molecular target: soluble human FcγRIIb (human) (UniProt P31994); test: as above
Chain of UniProt P31994 (P31994 43-217): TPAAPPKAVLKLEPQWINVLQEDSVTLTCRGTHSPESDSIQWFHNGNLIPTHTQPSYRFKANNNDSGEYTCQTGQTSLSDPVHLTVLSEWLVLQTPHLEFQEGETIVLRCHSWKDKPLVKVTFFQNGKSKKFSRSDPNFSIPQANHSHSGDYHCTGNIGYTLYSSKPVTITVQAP

[5] = molecular target: soluble human FcγRIIa (human) (UniProt P12318); test: as above
Chain of UniProt P12318 (P12318 34-217): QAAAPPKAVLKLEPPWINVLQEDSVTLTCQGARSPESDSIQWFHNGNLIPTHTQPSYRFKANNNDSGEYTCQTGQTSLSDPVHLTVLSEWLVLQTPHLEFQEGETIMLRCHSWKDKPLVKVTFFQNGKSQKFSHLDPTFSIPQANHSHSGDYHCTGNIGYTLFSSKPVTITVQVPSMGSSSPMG

[6] = molecular target: soluble human FcγRIII (human) (UniProt P08637); test: antigen-capture ELISA as for Tables 3-5 but with an anti-TNFα parent IgG; biotinylated soluble human FcγR; normalized to parent
[7] = molecular target: soluble human FcγRIIb (human) (UniProt P31994); test: as above

| Substance | FcRn 7.0 [1] | FcRn 6.0 [2] | relative FcγRIII (relative to parental antibody (=1.0)) [3] | relative FcγRIIb (relative to parental antibody (=1.0)) [4] | other results |
| --- | --- | --- | --- | --- | --- |
| anti-CD20 IgG Fc variant D280A (antibody) | 51 | 71 |  |  |  |
| anti-CD20 IgG Fc variant D280H (antibody) | 90 | 91 |  |  |  |
| anti-CD20 IgG Fc variant D280K (antibody) | 131 | 145 |  |  |  |
| anti-CD20 IgG Fc variant D280N (antibody) | 61 | 93 |  |  |  |
| anti-CD20 IgG Fc variant D280T (antibody) | 23 | 82 |  |  |  |
| anti-CD20 IgG Fc variant K290D (antibody) | 25 | 154 |  |  |  |
| anti-CD20 IgG Fc variant K290N (antibody) | 17 | 130 |  |  |  |
| anti-CD20 IgG Fc variant K290P (antibody) | 34 | 146 |  |  |  |
| anti-CD20 IgG Fc variant K290T (antibody) | 8 | 148 |  |  |  |
| anti-CD20 IgG Fc variant K290V (antibody) | 73 | 149 |  |  |  |
| anti-PSA IgG Fc variant E294N (antibody) |  |  | 1.14 | 0.672 |  |
| anti-PSA IgG Fc variant Q295K (antibody) |  |  | 1.47 | 0.892 |  |
| anti-PSA IgG Fc variant Q295L (antibody) |  |  | 1.06 | 1.34 | relative FcγRIIa (relative to parental antibody (=1.0)) [5]: 1.44 |
| anti-PSA IgG Fc variant S298D (antibody) |  |  | 2.31 | 0.188 |  |
| anti-PSA IgG Fc variant S298N (antibody) |  |  | 1.42 | 0.363 |  |
| anti-PSA IgG Fc variant S298V (antibody) |  |  | 2.8 | 0.592 |  |
| anti-PSA IgG Fc variant Y300I (antibody) |  |  | 1.38 | 1.26 |  |
| anti-PSA IgG Fc variant Y300L (antibody) |  |  | 1.81 | 1.36 |  |
| anti-TNFα IgG Fc variant D280H (antibody) |  |  |  |  | relative FcγRIII (relative to parental antibody (=1.0)) [6]: 1.24; relative FcγRIIb (relative to parental antibody (=1.0)) [7]: 0.92 |
| anti-TNFα IgG Fc variant D280Q (antibody) |  |  |  |  | relative FcγRIII (relative to parental antibody (=1.0)) [6]: 1.19; relative FcγRIIb (relative to parental antibody (=1.0)) [7]: 0.87 |
| anti-TNFα IgG Fc variant D280Y (antibody) |  |  |  |  | relative FcγRIII (relative to parental antibody (=1.0)) [6]: 1.23; relative FcγRIIb (relative to parental antibody (=1.0)) [7]: 2.14 |
| anti-TNFα IgG Fc variant K290G (antibody) |  |  |  |  | relative FcγRIII (relative to parental antibody (=1.0)) [6]: 1.64; relative FcγRIIb (relative to parental antibody (=1.0)) [7]: 1.46 |
| anti-TNFα IgG Fc variant K290S (antibody) |  |  |  |  | relative FcγRIII (relative to parental antibody (=1.0)) [6]: 1.23; relative FcγRIIb (relative to parental antibody (=1.0)) [7]: 1.4 |
